# Measured values published in US20060264369, “Aptamers to von Willebrand Factor and their use as thrombotic disease therapeutics” (published 2006).
# Tests used:
# [1] = molecular target: T1, von Willebrand factor A1 domain (Homo sapiens, UniProt P04275 SEQ:13-246); assay: filter; DPBS, 0.1 mg/mL BSA, 24 C; conditions: label: 5'-32P
# Protocol: Based on this initial screen, KDs were determined for 12 of the best vWF dependent binding sequences using the dot blot assay and are reported in column 5 of Table 4 below.
# [2] = molecular target: T1, von Willebrand factor A1 domain; assay: filter; DPBS, 0.1 mg/mL BSA, RT; conditions: label: 5'-32P
# Protocol: Based on this initial screen, KD's were determined for 16 of the best vWF dependent binding sequences using the dot blot assay. […] A 6 point protein titration of human vWF A1 domain (SEQ ID NO 5) was used in the dot blot assay (333 nM, 100 nM, 33 nM, 10 nM, 3 nM, 0 nM) in 1× DPBS plus 0.1 mg/mL BSA at room temperature for 30 minutes. KD values were calculated by fitting the equation y=(max/(1+K/protein))+yint using KaleidaGraph (KaleidaGraph v. 3.51, Synergy Software).
# [3] = molecular target: von Willebrand factor full length (Homo sapiens, UniProt P04275 SEQ:764-2813); assay: filter; conditions: tags: Calbiochem 681300
# Protocol: For KD determination, chemically synthesized aptamers were purified using denaturing polyacrylamide gel electrophoresis, 5′end labeled with γ-³²P ATP and were tested for direct binding to full length human vWF (Calbiochem Cat.# 681300, La Jolla, Calif.). An 8 point protein titration was used in the dot blot binding assay (100 nM, 30 nM, 10 nM, 3 nM, 1 nM, 300 pM, 100 pM, 0 pM)) in 1× Dulbecco's PBS containing […] (final volume of 50 uL) for 30 minutes at room temperature. KD values were calculated by fitting the equation y=(max/(1+K/protein))+yint using KaleidaGraph (KaleidaGraph v. 3.51, Synergy Software).
Binder,Kd [2] [nM],Kd [3] [nM],further results
"AMX201.B1 (ssRNA, 2'-F pyrimidines) RNA: GGAGCGCACUCAGCCACAGAGCCCUGAGUGUAUGAUCGCCUAGAUCUAUCGAUGCUUUUUCGACCUCUCUGCUAGC",–,–,Kd [1]: 19 nM
"AMX198.G1 (ssRNA, 2'-F pyrimidines) RNA: GGAGCGCACUCAGCCACAACACUAAUGGGGAAAGUUCAAGGAUUCUUGACCGGUGCGUUUCGACCUCUCUGCUAGC",–,–,Kd [1]: 45 nM
"AMX198.A10 (ssRNA, 2'-F pyrimidines) RNA: GGAGCGCACUCAGCCACCAGUUAUGCUGGCUUUGGUCUUUGACUGUCUGAGUGUUCGUUUCGACCUCUCUGCUAGC",–,–,Kd [1]: 1860 nM
"AMX198.E5 (ssRNA, 2'-F pyrimidines) RNA: GGAGCGCACUCAGCCACUUCGACUUUCAUGUCUGAAGUCCCUGCAGUGCGAGAGACGUUUCGACCUCUCUGCUAGC",–,–,Kd [1]: 172 nM
"AMX203.D6 (mixed, 2'-OH purines, deoxy pyrimidines) DNA: GGAGCGCACTCAGCCACAGTTCTGTCGGTGATGAATTAGCGCGAGAGCTGTGGGACGTTTCGACCTCTCTGCTAGC",523,–,–
"AMX205.H8 (mixed, 2'-OH purines, deoxy pyrimidines) DNA: GGAGCGCACTCAGCCACAAACGGACGGTGATGGATTAACGCGGGTTTATGGCAAGGTTTCGACCTCTCTGCTAGC",788,–,–
"AMX205.H11 (mixed, 2'-OH purines, deoxy pyrimidines) DNA: GGAGCGCACTCAGCCACGGCACGACGGTGATGGATTAGCGCGGTGTCGGTGGTGTCATTTCGACCTCTCTGCTAGC",144,–,–
"AMX205.D11 (mixed, 2'-OH purines, deoxy pyrimidines) DNA: GGAGCGCACTCAGCCACGGCACGACGGTGATGAATTAGCGCGGTGTCGGTGGTGTCATTTCGACCTCTCTGCTAGC",124,–,–
"AMX206.F9 (mixed, 2'-OH purines, deoxy pyrimidines) DNA: GGAGCGCACTCAGCCACGGAGCGTCGGTGATGGATTAGCGCGGCTCCGTGGTACACATTTCGACCTCTCTGCTAGC",139,–,–
"AMX206.H9 (mixed, 2'-OH purines, deoxy pyrimidines) DNA: GGAGCGCACTCAGCCACGGAGCGTCGGTGATGGATTAGCGCGGTTCCGTGGTACACCTTTCGACCTCTCTGCTAGC",109,–,–
"AMX206.A10 (mixed, 2'-OH purines, deoxy pyrimidines) DNA: GGAGCGCACTCAGCCACGGCATGACGGTGATGAATTAGCGCGGTGTCGGTGGTGTCATTTCGACCTCTCTGCTAGC",111,–,–
"AMX205.F9 (mixed, 2'-OH purines, deoxy pyrimidines) DNA: GGAGCGCACTCAGCCACGGAGCGTCGGTGATGGATTAGCGCGGCTCCGTGGTACGCCTTTCGACCTCTCTGCTAGC",145,–,–
"AMX201.H3 (ssRNA, 2'-F pyrimidines) RNA: GGAGCGCACUCAGCCACUAACGGUUGAUCUCAGGACUAAAUAGUCAACAAGGAUGCGUUUCGACCUCUCUGCUAGC",–,–,Kd [1]: 90 nM
"AMX206.E7 (mixed, 2'-OH purines, deoxy pyrimidines) DNA: GGAGCGCACTCAGCCACGGAGCGTCGGTGATGGATTAGCGCGGCTCCGTGGTACACCTTTCGACCTCTCTGCTAGC",151,–,–
"AMX206.D7 (mixed, 2'-OH purines, deoxy pyrimidines) DNA: GGAGCGCACTCAGCCACGGCACGACGGTGATGAATTAGCGCGGTGTCGGTGGTGTTATTTCGACCTCTCTGCTAGC",187,–,–
"AMX203.A1 (mixed, 2'-OH purines, deoxy pyrimidines) DNA: GGAGCGCACTCAGCCACAGTTCTGTCGGTGATGAATTAGCGCGGGAGCTGTGGGACGTTTCGACCTCTCTGCTAGC",1150,–,–
"AMX203.G9 (ARC842) (mixed, 2'-OH purines, deoxy pyrimidines) DNA: GGAGCGCACTCAGCCACGGGGTGGGTAGACGGCGGGTATGTGGCTGGTGTCGAAGGGTTTCGACCTCTCTGCTAGC",1.3,–,–
"AMX205.H9 (mixed, 2'-OH purines, deoxy pyrimidines) DNA: GGAGCGCACTCAGCCACGACGGTGATGGATTAGCGCGGTGGAGAAGATGCGCTGTTGTTTCGACCTCTCTGCTAGC",178,–,–
"AMX206.D8 (mixed, 2'-OH purines, deoxy pyrimidines) DNA: GGAGCGCACTCAGCCACGACGGTGATGGATTAGCGCGGTGGATCTTAACGTGCGAGTTTCGACCTCTCTGCTAGC",370,–,–
"AMX205.F7 (ARC841) (mixed, 2'-OH purines, deoxy pyrimidines) DNA: GGAGCGCACTCAGCCACACGACATTGGCGGGTTGTAATTACCACGCATGGCTGTTTGTTTCGACCTCTCTGCTAGC",1.5,–,–
"AMX205.H10 (mixed, 2'-OH purines, deoxy pyrimidines) DNA: GGAGCGCACTCAGCCACTGTTGCCGACGGTGATGTATTAACGCGGGCAACGTTGGTGTTTCGACCTCTCTGCTAGC",397,–,–
"AMX201.G1 (ssRNA, 2'-F pyrimidines) RNA: GGAGCGCACUCAGCCACGCUCGGUGGGGAAAUUUUAGCCUAAUUGGCUACUUGUGCGUUUCGACCUCUCUGCUAGC",–,–,Kd [1]: 190 nM

Binder,Kd [2] [nM],Kd [3] [nM],further results
"AMX198.C6 (ssRNA, 2'-F pyrimidines) RNA: GGAGCGCACUCAGCCACGGUGGUCAGUCAGUGAUAUGAUUAAGUUCAGCUGUGGCUGUUUCGACCUCUCUGCUAGC",–,–,Kd [1]: 249 nM
"AMX198.C10 (ssRNA, 2'-F pyrimidines) RNA: GGAGCGCACUCAGCCACUGGUCCUUAGCUAGUUGUACUAGCGACGCGUUCAGGUGGUUUCGACCUCUCUGCUAGC",–,–,Kd [1]: 555 nM
"AMX201.G9 (ssRNA, 2'-F pyrimidines) RNA: GGAGCGCACUCAGCCACUAACGGCUGAUCUCAGGACUAAAUAGUCAACAAGGAUGCGUUUCGACCUCUCUGCUAGC",–,–,Kd [1]: 182 nM
"GCGUGCAGUGCCUUCGGCCGTGCGGTGCCUCCGUCACGC (mixed, 2'-OMe at 1-4,8-18,20,22,27,28,30,33,34,36-39, rest deoxy; PS between 4 and 5; 3'-idT) [ARC1362]",–,9.9,–
"GCGUGCAGUGCCUUCGGCCGTGCGGTGCCUCCGUCACGC (mixed, 2'-OMe at 1-4,8-18,20,22,27,28,30,33,34,36-39, rest deoxy; PS between 5 and 6; 3'-idT) [ARC1363]",–,12.7,–
"GCGUGCAGUGCCUUCGGCCGTGCGGTGCCUCCGUCACGC (mixed, 2'-OMe at 1-4,8-18,20,22,27,28,30,33,34,36-39, rest deoxy; PS between 6 and 7; 3'-idT) [ARC1364]",–,8.2,–
"GCGUGCAGUGCCUUCGGCCGTGCGGTGCCUCCGUCACGC (mixed, 2'-OMe at 1-4,8-18,20,22,27,28,30,33,34,36-39, rest deoxy; PS between 7 and 8; 3'-idT) [ARC1365]",–,10.8,–
"GCGUGCAGUGCCUUCGGCCGTGCGGTGCCUCCGUCACGC (mixed, 2'-OMe at 1-4,8-18,20,22,27,28,30,33,34,36-39, rest deoxy; PS between 18 and 19; 3'-idT) [ARC1366]",–,15.5,–
"GCGUGCAGUGCCUUCGGCCGTGCGGTGCCUCCGUCACGC (mixed, 2'-OMe at 1-4,8-18,20,22,27,28,30,33,34,36-39, rest deoxy; PS between 19 and 20; 3'-idT) [ARC1367]",–,13.9,–
"GCGUGCAGUGCCUUCGGCCGTGCGGTGCCUCCGUCACGC (mixed, 2'-OMe at 1-4,8-18,20,22,27,28,30,33,34,36-39, rest deoxy; PS between 21 and 22; 3'-idT) [ARC1369]",–,16.3,–
"GCGUGCAGUGCCUUCGGCCGTGCGGTGCCUCCGUCACGC (mixed, 2'-OMe at 1-4,8-18,20,22,27,28,30,33,34,36-39, rest deoxy; PS between 22 and 23; 3'-idT) [ARC1370]",–,10.1,–
"GCGUGCAGUGCCUUCGGCCGTGCGGTGCCUCCGUCACGC (mixed, 2'-OMe at 1-4,8-18,20,22,27,28,30,33,34,36-39, rest deoxy; PS between 23 and 24; 3'-idT) [ARC1371]",–,8.4,–
"GCGUGCAGUGCCUUCGGCCGTGCGGTGCCUCCGUCACGC (mixed, 2'-OMe at 1-4,8-18,20,22,27,28,30,33,34,36-39, rest deoxy; PS between 24 and 25; 3'-idT) [ARC1372]",–,23.5,–
"GCGUGCAGUGCCUUCGGCCGTGCGGTGCCUCCGUCACGC (mixed, 2'-OMe at 1-4,8-18,20,22,27,28,30,33,34,36-39, rest deoxy; PS between 25 and 26; 3'-idT) [ARC1373]",–,7.1,–
"GCGUGCAGUGCCUUCGGCCGTGCGGTGCCUCCGUCACGC (mixed, 2'-OMe at 1-4,8-18,20,22,27,28,30,33,34,36-39, rest deoxy; PS between 26 and 27; 3'-idT) [ARC1374]",–,9.5,–
"GCGUGCAGUGCCUUCGGCCGTGCGGTGCCUCCGUCACGC (mixed, 2'-OMe at 1-4,8-18,20,22,27,28,30,33,34,36-39, rest deoxy; PS between 28 and 29; 3'-idT) [ARC1375]",–,8.8,–
"GCGUGCAGUGCCUUCGGCCGTGCGGTGCCUCCGUCACGC (mixed, 2'-OMe at 1-4,8-18,20,22,27,28,30,33,34,36-39, rest deoxy; PS between 29 and 30; 3'-idT) [ARC1376]",–,4.4,–
"GCGUGCAGUGCCUUCGGCCGTGCGGTGCCUCCGUCACGC (mixed, 2'-OMe at 1-4,8-18,20,22,27,28,30,33,34,36-39, rest deoxy; PS between 30 and 31; 3'-idT) [ARC1377]",–,7.4,–
"GCGUGCAGUGCCUUCGGCCGTGCGGTGCCUCCGUCACGC (mixed, 2'-OMe at 1-4,8-18,20,22,27,28,30,33,34,36-39, rest deoxy; PS between 31 and 32; 3'-idT) [ARC1378]",–,9.1,–
"GCGUGCAGUGCCUUCGGCCGTGCGGTGCCUCCGUCACGC (mixed, 2'-OMe at 1-4,8-18,20,22,27,28,30,33,34,36-39, rest deoxy; PS between 32 and 33; 3'-idT) [ARC1379]",–,10.4,–
"GCGUGCAGUGCCUUCGGCCGTGCGGTGCCUCCGUCACGC (mixed, 2'-OMe at 1-4,8-18,20,22,27,28,30,33,34,36-39, rest deoxy; PS between 34 and 35; 3'-idT) [ARC1380]",–,12,–
"GCGUGCAGUGCCUUCGGCCGTGCGGTGCCUCCGUCACGC (mixed, 2'-OMe at 1-4,8-18,20,22,27,28,30,33,34,36-39, rest deoxy; PS between 35 and 36; 3'-idT) [ARC1381]",–,8.7,–
